The source of these data is paper PMC3923860.

For the data set, the system named is H1-CΔ97 (histone H1o lacking C-terminal domain) (mouse). The data set can be described thus: EMSA. As to conditions: no competitor DNA; EMSA: 50 mM NaCl, 25 mM Tris-HCl pH 7.5, 1 mM EDTA, 1 mM DTT, 100 ug/ml acetylated BSA, 3% glycerol; 30 min on ice; gels 0.5x TBE, 4 C.

For orientation: Kd means the free concentration of one partner at which half of the binding sites on the other are occupied at equilibrium, for simple one-to-one binding. Higher therefore signals a looser complex. The substance hemicatenated DNA loops (hcDNA) gave a Kd of 35 nM.
